According to US20260248917A1, “BICYCLIC PEPTIDE LIGANDS SPECIFIC FOR EPHA2 AND USES THEREOF” (BicycleTx Limited, priority 2019, published 2026):

What was measured:
Type in all cases: physicochemical
[1] = Appearance of solution (bulk or reconstituted), visual; conditions: 4 mg/mL bulk solution
Experimental: (§1) The bulk solution appearance, pH, density and BT5528 assay/related substances were recorded. Additional samples were subjected to three freeze (−20° C.)/thaw cycles, assessing appearance, pH, UPLC and sub-visible particulates (MFI) after each cycle.
(§2) The lyophilized product was placed on stability and tested for 1 month (according to Table 1-9) at accelerated storage of 25° C./60% RH. The lyophilized product was assessed by means of appearance, moisture content, and assay and related substances by UPLC. The reconstituted product was assessed on the basis of reconstitution time, solution appearance, pH and sub-visible particulates (T=0 only).

[2] = pH of bulk or reconstituted solution; conditions: 4 mg/mL bulk solution
Experimental: as §1, §2

[3] = Reconstitution time of lyophilized product; conditions: 21.2 mg/vial reconstituted with 5.3 mL 0.02 M HCl, versus 0.01 M HCl
Experimental: as §2
Formulations 1 to 4 had significant adsorptive properties with the drug product adsorbing onto the glass vial above and in the reconstituted solution. Formulation 5 (2 mg/mL BT5528) produced the best results with drug product adsorbing only slightly above the solution and no adsorption noted within the solution. Variability in reconstitution time derives from the analytical procedure deviating throughout the testing of formulation 1. This occurred due to the severe adsorptive nature of formulation 1. For the 4 mg/mL solution agitation occurred immediately after addition of reconstitution medium producing a severe adsorptive spread above the solution. A settle period before agitation was performed for the 2 mg/mL producing a better reconstitution performance although adsorption was still noted. For the 1.3 mg/mL solution a settle period of 5 minutes was performed to minimize the agitation required. […]

[4] = Density of final solution; conditions: filtered 4 mg/mL solution
Experimental: as §1
The pH of the solution was measured and adjusted to target (pH 6.8-7.2). The pH was 7.79 pH after the addition of API and was adjusted to 7.19 pH using 0.1 M HCl solution. The solution was transferred to a 20 mL volumetric flask and make to final volume with WFI. The solution was filtered through a single 0.22 μm, PES membrane syringe filter. The final solution was a clear, colourless solution which was free from any visible particulates. The density of the final solution was measured, 1.025 g/cm^3. A pre- and post-filtration sample was passed to analytical for HPLC analysis. The remaining bulk solution was filled in 2 mL volumes into 2 mL glass vials and subjected to three, freeze/thaw cycles.

BT5528: Bicycle toxin conjugate; TATA scaffold; peptide ligand (β-Ala)-Sar10-A(HArg)D-Ci(HyP)LVNPLCiiLHP(D-Asp)W(HArg)Ciii (SEQ ID NO: 1)
Appearance ([1]; Freeze Thaw Cycle 1 (−20° C.)): Clear, colourless solution free | Appearance ([1]; Freeze Thaw Cycle 2): Clear, colourless solution free | Appearance ([1]; Freeze Thaw Cycle 3): Clear, colourless solution free | Appearance ([1]; Post Filtration): Clear, colourless solution free | Appearance ([1]; Pre Filtration): Clear, colourless solution free | pH ([2]; Freeze Thaw Cycle 1): 7.3 | pH ([2]; Freeze Thaw Cycle 2): 7.3 | pH ([2]; Freeze Thaw Cycle 3): 7.3 | pH ([2]; Pre Filtration): 7.2 | reconstitution time and appearance of the reconstituted product (oily droplet formation) [3]: improved | density of the final solution [4]: 1.025 g/mL
